Reference: patent US10058586B2, “Use of human small leucine zipper protein in adipocyte differentiation procedure” (Korea University Research and Business Foundation, priority 2013, dated 2018)

Legend:
PPARγ2 [1] = target: T1, PPARγ2 (Mus musculus, UniProt P37238); assay: FABP4-Luc stable C3H10T1/2 cells infected with sLZIP-expressing adenovirus and differentiated into adipocytes; assay type: cell-based; conditions: sLZIP adenovirus, differentiated into adipocytes for 4 days
T1 construct: endogenous in cells
T1 sequence (P37238 1-505): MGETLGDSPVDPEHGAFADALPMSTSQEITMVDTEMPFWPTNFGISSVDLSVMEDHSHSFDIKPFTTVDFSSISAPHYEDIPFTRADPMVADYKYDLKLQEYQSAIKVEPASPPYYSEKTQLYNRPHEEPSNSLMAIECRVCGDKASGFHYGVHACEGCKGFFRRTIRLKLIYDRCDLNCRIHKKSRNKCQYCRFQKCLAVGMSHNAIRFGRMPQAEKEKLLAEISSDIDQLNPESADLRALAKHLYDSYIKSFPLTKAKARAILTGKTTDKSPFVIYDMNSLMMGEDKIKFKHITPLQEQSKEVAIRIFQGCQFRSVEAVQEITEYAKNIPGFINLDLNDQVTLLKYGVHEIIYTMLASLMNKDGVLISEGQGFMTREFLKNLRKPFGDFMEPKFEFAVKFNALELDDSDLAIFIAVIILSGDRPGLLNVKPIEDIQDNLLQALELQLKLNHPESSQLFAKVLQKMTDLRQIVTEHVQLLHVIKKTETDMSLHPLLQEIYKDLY

PPARγ2 [2] = target: T2, PPARγ2 (Homo sapiens, UniProt P37231); assay: Fluorescence microscopy, subcellular localization of sLZIP and PPARγ2 in C3H10T1/2 cells; assay type: cell-based; conditions: GFP-PPARγ2 and Flag-sLZIP
T2 sequence (P37231 1-505): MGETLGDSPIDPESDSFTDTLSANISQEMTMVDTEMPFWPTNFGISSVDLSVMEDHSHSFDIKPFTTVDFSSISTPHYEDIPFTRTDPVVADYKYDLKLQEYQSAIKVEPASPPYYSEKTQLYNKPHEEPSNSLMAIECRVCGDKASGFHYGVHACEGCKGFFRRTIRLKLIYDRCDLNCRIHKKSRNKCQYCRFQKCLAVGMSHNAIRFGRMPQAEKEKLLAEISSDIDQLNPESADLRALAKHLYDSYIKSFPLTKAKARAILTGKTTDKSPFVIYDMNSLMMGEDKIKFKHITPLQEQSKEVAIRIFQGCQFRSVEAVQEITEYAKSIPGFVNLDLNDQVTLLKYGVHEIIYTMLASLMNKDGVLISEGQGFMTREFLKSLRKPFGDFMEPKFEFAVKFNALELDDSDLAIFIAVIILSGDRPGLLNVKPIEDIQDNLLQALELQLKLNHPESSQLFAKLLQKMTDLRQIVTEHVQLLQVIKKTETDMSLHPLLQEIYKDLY
Protocol: C3H10T1/2 cells were transiently ci-transfected with Flag-sLZIP, GFP-PPARγ2 or GFP-sLZIP, and HDAC3 was grown on cover slip. After 24 hours, the cells were fixed with 4% paraformaldehyde for 10 minutes and permeabilized 0.2% Triton-X 100 for 5 minutes. The cells were incubated with 1% BSA for one hour, and then incubated with anti-Flag and anti-HDAC3 antibodies overnight at 4° C. The cells were washed with PBS, and then were incubated with Texas Red-labeled antibodies for 2 hours. A cover slide was washed with PBS, and mounted on and examined using a LSM 510 META confocal microscopy (Carl Zeiss, Jena, Germany).
In order to examine whether the transcriptional activity of PPARγ2 is regulated by interaction with sLZIP, interaction between sLZIP and PPARγ2 was examined. For this purpose, 293T cells were transfected with GST-sLZIP and Myc-PPARγ2. Cell lysates were obtained and GST pull-down analysis was performed using a glutathione 4B bead. A protein complex was analyzed in SDS-PAGE and then immunoblotted with specific antibodies (FIG. 2A). […] Proteins bound to the bead were analyzed in SDS-PAGE, and then immunoblotted with anti-PPARγ2 and anti-His antibodies (FIG. 2C). GFP-PPARγ2 and Flag-sLZIP constructs were expressed in C3H10T1/2 cells, and analyzed using mouse anti-Flag and Texas Red-labeled anti-mouse antibodies under a fluorescence microscope. […]

PPARγ2 [3] = target: T2, PPARγ2; assay: His pull-down of purified His-sLZIP with in vitro translated PPARγ2; assay type: binding; parameters: made in house; host or cells: PPARγ2: TNT in vitro translation system (Promega); His-sLZIP: E. coli BL21, pET-28a(+)
Protocol: sLZIP was cloned into a pET-28a(+) vector. His-sLZIP proteins were expressed in Escherichia coli (E. coli) BL21 cells using a T7 isopropyl-β-D-thiogalactopyranoside (IPTG)-inducible system. IPTG-induced cells were disrupted bysonification and cell lysates were clarified by centrifugation. His-sLZIP proteins were applied onto a nickel-nitrilotriacetic acid bead column (Bio-Rad, Richmond, Calif.). The column was washed with a great volume of a lysis buffer and 10 mM of imidazole, and eluted in a Ni-NTA elution buffer (Bio-Rad Laboratories, Hercules, Calif.). A fraction containing His-sLZIP proteins was dialyzed against 10% glycerol, and stored at −80° C. Protein purification was evaluated according to 10% SDS-PAGE/Coomassie blue staining and a purity of >98% in general was shown.
In order to examine whether the transcriptional activity of PPARγ2 is regulated by interaction with sLZIP, interaction between sLZIP and PPARγ2 was examined. […] A protein complex was analyzed in SDS-PAGE and then immunoblotted with specific antibodies (FIG. 2A). […] Proteins bound to the bead were analyzed in SDS-PAGE, and then immunoblotted with anti-PPARγ2 and anti-His antibodies (FIG. 2C). GFP-PPARγ2 and Flag-sLZIP constructs were expressed in C3H10T1/2 cells, and analyzed using mouse anti-Flag and Texas Red-labeled anti-mouse antibodies under a fluorescence microscope. […]

B1: sLZIP: human small leucine-zipper protein, isoform of LZIP, 354 amino acids, no transmembrane domain; GenBank FJ263669, SEQ ID NO: 1 (protein, listed as Homo sapiens)
chain: MELELDAGDQDLLAFLLEESGDLGTAPDEAVRAPLDWALPLSEVPSDWEVDDLLCSLLSPPASLNILSSSNPCLVHHDHTYSLPRETVSMDLESESCRKEGTQMTPQHMEELAEQEIARLVLTDEEKSLLEKEGLILPETLPLTKTEEQILKRVRRKIRNKRSAQESRRKKKVYVGGLESRVLKYTAQNMELQNKVQLLEEQNLSLLDQLRKLQAMVIEISNKTSSSSMYSSDTRGSLPAEHGVLSRQLRALPSEDPYQLELPALQSEVPKDSTHQWLDGSDCVLQAPGNTSCLLHYMPQAPSAEPPLEWPFPDLFSEPLCRGPILPLQANLTRKGGWLPTGSPSVILQDRYSG
- transcriptional activity of PPARγ2 (relative luciferase activity) (PPARγ2 [1]): the transcriptional activity of PPARγ2 decreased in adipocytes
- subcellular localization of sLZIP and PPARγ2 (PPARγ2 [2]): localized in the nucleus together with PPARγ2
- direct interaction with PPARγ2 (His pull-down) (PPARγ2 [3]): PPARγ2 was directly bound to sLZIP
